Results as given in publication PMC11921375, “Phenanthrene degradation by a flavoprotein monooxygenase from Phanerodontia chrysosporium” (Applied and Environmental Microbiology, 2025).

Tests used:
[1] = system: T1, FPMO11 (flavoprotein monooxygenase 11); test: NAD(P)H oxidation at […] nm, initial velocity; assay type: biochemical, Phanerodontia chrysosporium; settings: apparent, 50 mM HEPES-NaOH pH 7.0, 30°C
T1 construct: full-length, C-terminal 6xHis, pET21a, E. coli BL21; FAD flavoprotein

[2] = system: T2, IDD1 (intradiol dioxygenase 1); test: O2 consumption, Clark electrode; Michaelis-Menten fit; assay type: biochemical, Phanerodontia chrysosporium; settings: apparent; 50 mM Tris-HCl pH 8.0, air-saturated, superoxide dismutase added
T2 construct: recombinant, E. coli

[3] = system: T3, IDD2 (intradiol dioxygenase 2); test: as above; assay type: biochemical, Phanerodontia chrysosporium; settings: apparent; 50 mM Tris-HCl pH 8.0, air-saturated, superoxide dismutase added
T3 construct: recombinant, E. coli

[4] = target: T4, NahG (salicylate 1-monooxygenase) (Pseudomonas putida, UniProt P23262); test: NAD(P)H oxidation at […] nm, initial velocity; assay type: biochemical; settings: apparent; co-substrate NADH varied, aromatic substrate not stated; 50 mM HEPES pH 8.0, 30°C
T4 construct: full-length synthetic gene, C-terminal 6xHis, pET21a, E. coli BL21
T4 sequence (P23262 2-434): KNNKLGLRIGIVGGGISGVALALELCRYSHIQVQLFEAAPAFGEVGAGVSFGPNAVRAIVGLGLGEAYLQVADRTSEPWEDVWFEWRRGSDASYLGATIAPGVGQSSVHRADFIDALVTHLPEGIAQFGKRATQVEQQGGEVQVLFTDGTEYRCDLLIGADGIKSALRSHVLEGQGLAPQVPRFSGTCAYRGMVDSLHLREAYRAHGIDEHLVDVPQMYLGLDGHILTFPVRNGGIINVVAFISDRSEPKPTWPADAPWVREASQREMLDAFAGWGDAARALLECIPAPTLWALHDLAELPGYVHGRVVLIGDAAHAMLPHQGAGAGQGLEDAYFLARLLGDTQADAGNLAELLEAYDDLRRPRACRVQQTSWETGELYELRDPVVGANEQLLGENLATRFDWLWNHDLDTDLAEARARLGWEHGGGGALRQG

purified protein [5] = substrate: O=C(O)c1ccc(Cl)cc1O; test: purified protein; assay type: biochemical, Pseudomonas putida; settings: apparent, NAD(P)H co-substrate (NADH in results, NADPH in methods), 50 mM HEPES pH 8.0, 30°C
purified protein [6] = substrate: O=C(O)c1cccc(O)c1O; test: purified protein; assay type: biochemical, Pseudomonas putida; settings: apparent, NAD(P)H co-substrate (NADH in results, NADPH in methods), 50 mM HEPES pH 8.0, 30°C
purified protein [7] = substrate: O=C(O)c1ccc(O)cc1O; test: purified protein; assay type: biochemical, Pseudomonas putida; settings: apparent, NAD(P)H co-substrate (NADH in results, NADPH in methods), 50 mM HEPES pH 8.0, 30°C
purified protein [8] = substrate: NC(=O)C1=CN([C@@H]2O[C@H](COP(=O)(O)OP(=O)(O)OC[C@H]3O[C@@H](n4cnc5c(N)ncnc54)[C@H](OP(=O)(O)O)[C@@H]3O)[C@@H](O)[C@H]2O)C=CC1; test: purified protein; assay type: biochemical, Pseudomonas putida; settings: apparent, co-substrate NADPH varied, aromatic substrate not stated, 50 mM HEPES pH 8.0, 30°C, varied: cofactor
purified protein [9] = substrate: O=C(O)c1cc(O)ccc1O; test: purified protein; settings: apparent, NAD(P)H co-substrate (NADH in results, NADPH in methods), 50 mM HEPES pH 8.0, 30°C

O=C(O)c1ccc(Cl)cc1O [4CSA]
Km ([1]; NADPH co-substrate): 120 ± 28 µM

O=C(O)c1c(O)cccc1-c1ccccc1 [2H6PB]
Km ([1]; NADPH co-substrate): 320 ± 84 µM

O=C(O)c1ccccc1O [SA]
Km ([1]; NADPH co-substrate): 30 ± 34 µM

O=C(O)c1cccc(O)c1O [2,3DHB]
Km ([1]; NADPH co-substrate): 67 ± 1.8 µM

O=C(O)c1c(O)ccc2ccccc12 [2H1N]
Km ([1]; NADPH co-substrate): 110 ± 25 µM

O=C(O)c1cccc(-c2ccccc2)c1O [2H3PB]
Km ([1]; NADPH co-substrate): 290 ± 67 µM

Oc1ccc2ccccc2c1O [1,2DHN]
Km [2]: 480 ± 18 µM | Km [3]: 520 ± 180 µM

O=C(O)c1ccc2ccccc2c1O [1H2N]
Km ([1]; NADPH co-substrate): 100 ± 15 µM

O=C(O)c1cc(O)ccc1O [GA]
Km ([1]; NADPH co-substrate): 48 ± 45 µM

O=C(O)c1ccc(O)cc1O [2,4DHB]
Km ([1]; NADPH co-substrate): 82 ± 9.7 µM

NC(=O)C1=CN([C@@H]2O[C@H](COP(=O)(O)OP(=O)(O)OC[C@H]3O[C@@H](n4cnc5c(N)ncnc54)[C@H](O)[C@@H]3O)[C@@H](O)[C@H]2O)C=CC1 [NADH]
Km [4]: 27 ± 10 µM | Km ([1]; co-substrate NADH varied, aromatic substrate not stated): 170 ± 60 µM

NC(=O)C1=CN([C@@H]2O[C@H](COP(=O)(O)OP(=O)(O)OC[C@H]3O[C@@H](n4cnc5c(N)ncnc54)[C@H](OP(=O)(O)O)[C@@H]3O)[C@@H](O)[C@H]2O)C=CC1 [NADPH]
Km ([1]; co-substrate NADPH varied, aromatic substrate not stated): 150 ± 37 µM

B1: NahG (salicylate 1-monooxygenase) (Pseudomonas putida) (protein)
chain: T4 sequence (P23262 2-434)
notes: full-length synthetic gene, C-terminal 6xHis, pET21a, E. coli BL21
Km (purified protein [5]): 51 ± 19 µM | kcat (purified protein [5]): 0.917 ± 0.4 s⁻¹ | kcat/Km (purified protein [5]): 18300 M⁻¹ s⁻¹ | Km (purified protein [6]): 120 ± 15 µM | kcat (purified protein [6]): 5.5 ± 0.567 s⁻¹ | kcat/Km (purified protein [6]): 45000 M⁻¹ s⁻¹ | Km (purified protein [7]): 70 ± 15 µM | kcat (purified protein [7]): 5.17 ± 0.467 s⁻¹ | kcat/Km (purified protein [7]): 73300 M⁻¹ s⁻¹ | Km (purified protein [8]): 69 ± 17 µM | kcat (purified protein [8]): 1.33 ± 0.583 s⁻¹ | kcat/Km (purified protein [8]): 20000 M⁻¹ s⁻¹ | Km (purified protein [9]): 110 ± 30 µM | kcat (purified protein [9]): 7 s⁻¹ | kcat/Km (purified protein [9]): 61700 M⁻¹ s⁻¹
